Patent US20220119448A1 (ZHEJIANG DOER BIOLOGICS, published 2022)

What was measured:
VEGF [1] = target: T1, VEGF (UniProt P15692-4 27-191, limits assumed, biotin-labelled (Sulfo-NHS biotin, molar ratio 2:1) in the BLI assay; unlabelled in the competition ELISA); assay: BLI (Octet-QK), biotin-VEGF on SA probe; repeat 1
T1 construct: also called biotin-labeled VEGF
Description: (§1) The binding affinities of the fusion proteins were detected using BLI (Bio-layer inteferometry, ForteBio). […] Excess biotin not involved in labeling was removed by dialysis. […] The buffer used in the experiment was PBS (containing 0.1% Tween-20). […] Based on the program settings, the fusion proteins were bound, and then dissociated in PBST solution, to obtain the experimental curves. According to the result analysis software of Octet-QK, local full was used to fit the curves of the experimental results, then kon, kdis and Kd were determined.

VEGF [2] = target: T1, VEGF; assay: BLI (Octet-QK), biotin-VEGF on SA probe; average of 3 repeats (STD 0.11)
Description: as §1

VEGF [3] = target: T1, VEGF; assay: BLI (Octet-QK), biotin-VEGF on SA probe; repeat 2
Description: as §1

VEGF [4] = target: T1, VEGF; assay: competition ELISA: sample pre-mixed with VEGF, mixture put on a plate coated with VEGF Receptor 2 (KDR), bound VEGF detected with mouse anti-human VEGF antibody, OD450; blocked ligand-receptor pair VEGF/KDR
Experimental: (§2) The plate was then blocked with 1% BSA/TBS and placed at 37° C. for 1 h; 1% BSA/TBS was added to the plate, 200 μL per well, and placed at 37° C. for 2 h.
(§3) Then, the stock solutions were diluted by 3 times to a total of 11 concentrations. […] The KDR-coated ELISA plate was washed twice and pat-dried. The mixture was successively transferred to the ELISA plate and placed at 37° C. for 1 h, then the plate was washed for 6 times. […] The plate was placed at 37° C. for 1 h and washed for 6 times. Then, goat anti-rat secondary antibody (Pierce, 31432, QA1969921) diluted at 1:1000 was added, 50 μL per well. The plate was placed at 37° C. for 1 h and washed for 6 times. Color developing solution was added after reaction, and the plated was incubated at 37° C. for 15 min. Stop buffer was added to terminate the color reaction. OD450 values were read on a microplate reader.

VEGF [5] = target: T1, VEGF; assay: competition ELISA: inhibition of VEGF binding to plate-coated VEGF Receptor 2 (KDR)
Experimental: as §2, §3

VEGF [6] = target: T1, VEGF; assay: BLI (Octet-QK), biotin-VEGF on SA probe; repeat 3
Description: as §1

T1 sequence (P15692 other isoform, or with tags, fused parts or gaps limits assumed): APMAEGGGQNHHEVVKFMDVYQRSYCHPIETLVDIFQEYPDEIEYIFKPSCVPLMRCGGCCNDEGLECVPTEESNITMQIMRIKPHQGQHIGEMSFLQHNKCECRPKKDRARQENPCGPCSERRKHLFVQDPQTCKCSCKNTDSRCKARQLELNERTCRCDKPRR

B1: PU98x43-ARVEGF (designed binder)
chain: AEPAAPAPAEPAAPAPEAPAAEPAAPAPAEPAAPAPEAPAAEPAAPAPAEPAAPAPEAPAAEPAAPAPAEPAAPAPEAPAAEPAAPAPAEPAAPAPEAPAAEPAAPAPAEPAAPAPEAPAAEPAAPAPAEPAAPAPEAPAAEPAAPAPAEPAAPAPEAPAAEPAAPAPAEPAAPAPEAPAAEPAAPAPAEPAAPAPEAPAAEPAAPAPAEPAAPAPEAPAAEPAAPAPAEPAAPAPEAPAAEPAAPAPAEPAAPAPEAPAAEPAAPAPAEPAAPAPEAPAAEPAAPAPAEPAAPAPEAPAAEPAAPAPAEPAAPAPEAPAAEPAAPAPAEPAAPAPEAPAAEPAAPAPAEPAAPAPEAPAAEPAAPAPAEPAAPAPEAPAAEPAAPAPAEPAAPAPEAPAAEPAAPAPAEPAAPAPEAPAAEPAAPAPAEPAAPAPEAPAAEPAAPAPAEPAAPAPEAPAAEPAAPAPAEPAAPAPEAPAAEPAAPAPAEPAAPAPEAPAAEPAAPAPAEPAAPAPEAPAAEPAAPAPAEPAAPAPEAPAAEPAAPAPAEPAAPAPEAPAAEPAAPAPAEPAAPAPEAPAAEPAAPAPAEPAAPAPEAPAAEPAAPAPAEPAAPAPEAPAAEPAAPAPAEPAAPAPEAPAAEPAAPAPAEPAAPAPEAPAAEPAAPAPAEPAAPAPEAPAAEPAAPAPAEPAAPAPEAPAAEPAAPAPAEPAAPAPEAPAAEPAAPAPAEPAAPAPEAPAAEPAAPAPAEPAAPAPEAPAAEPAAPAPAEPAAPAPEAPAAEPAAPAPAEPAAPAPEAPAAEPAAPAPAEPAAPAPEAPAAEPAAPAPAEPAAPAPEAPAAEPAAPAPAEPAAPAPEAPAGSDLDKKLLEAARAGQDDEVRILMANGADVNARDSTGWTPLHLAAPWGHPEIVEVLLKNGADVNAADFQGWTPLHLAAAVGHLEIVEVLLKYGADVNAQDKFGKTAFDISIDNGNEDLAEILQKAA
notes: also called PU-ARVEGF fusion protein
Kd (VEGF [1]): 0.63 nM
Kd (VEGF [2]): 0.51 nM
Kd (VEGF [3]): 0.49 nM
IC50 (read off the curve) (VEGF [4]): ~0.3 nM
IC50 (VEGF [5]): 0.51 nM
Kd (VEGF [6]): 0.42 nM
